Source: the supplement of paper PMC7125110
± gives the standard error. This sample holds only a part of the variants without activity.

B1: glmS ribozyme (parent)
chain: AUAAAAGCGCCAGAACUACAGAAAUGUAGUUGACGAGGAGGAGGUUUAUCGAAUUUUCGGCGGAUGCCUCCAAA

Assays:
Details in all cases: with glucosamine-6-phosphate
glucosamine-6-phosphate [1] = variants of: B1; experiment: self-cleavage kobs at 40 uM GlcN6P; higher = faster cleavage; RNA array
In short: (§1)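 Glucosamine-6-phosphate, from 40 μM to 10 mM in HEPES/KCl/Mg(OAc)2 buffer, was flowed over sequenced MiSeq chips carrying barcoded ribozyme variants transcribed in situ by E. coli RNA polymerase. A hybridised Cy3 probe tracked the variants at 37 °C as tiles were imaged over ~14 h. kobs, kcat and KM were obtained by fitting normalised per-tile medians to exponential decays and then applying weighted Michaelis–Menten fits across concentrations.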

glucosamine-6-phosphate [2] = variants of: B1; experiment: self-cleavage kobs at 160 uM GlcN6P; higher = faster cleavage; RNA array
In short: as §1

glucosamine-6-phosphate [3] = variants of: B1; experiment: self-cleavage kobs at 640 uM GlcN6P; higher = faster cleavage; RNA array
In short: as §1

glucosamine-6-phosphate [4] = variants of: B1; experiment: self-cleavage kobs at 2500 uM GlcN6P; higher = faster cleavage; RNA array
In short: as §1

glucosamine-6-phosphate [5] = variants of: B1; experiment: self-cleavage kobs at 10000 uM GlcN6P; higher = faster cleavage; RNA array
In short: as §1

Variant | self-cleavage kobs at 40 uM GlcN6P (glucosamine-6-phosphate [1]) [s⁻¹] | self-cleavage kobs at 160 uM GlcN6P (glucosamine-6-phosphate [2]) [s⁻¹] | self-cleavage kobs at 640 uM GlcN6P (glucosamine-6-phosphate [3]) [s⁻¹] | self-cleavage kobs at 2500 uM GlcN6P (glucosamine-6-phosphate [4]) [s⁻¹] | self-cleavage kobs at 10000 uM GlcN6P (glucosamine-6-phosphate [5]) [s⁻¹]
C10A A48G U49G | < 1e-05 | < 1e-05 | < 1e-05 | < 1e-05 | < 1e-05
C10U U45A C50U G66A | < 1e-05 |  |  |  | < 1e-05
C10G G37A G66U U69G C71A | < 1e-05 | < 1e-05 |  |  | 
C11A A12U A52U | < 1e-05 |  |  |  | 
C11G U46A C67G | < 1e-05 |  |  |  | < 1e-05
C10A G29A C67G | 0.000103 ± 3.7e-05 |  |  |  | 0.000102 ± 3e-05
C10U A33G | < 1e-05 | < 1e-05 | < 1e-05 |  | < 1e-05
C11A A39C G62C A64U C67G | < 1e-05 |  |  |  | 
C10G C16U | < 1e-05 | < 1e-05 |  |  | 
C11G C16G | < 1e-05 | < 1e-05 |  | < 1e-05 | < 1e-05
C11A A14C A36G C50U C58U C61G | 0.000206 ± 8.1e-05 |  |  |  | 
C10A G13A U56C | < 1e-05 |  |  |  | 
C10U C50G C70G | 5.33e-05 ± 1.6e-05 |  |  |  | 
C10G A14G C16A G41C | < 1e-05 |  |  |  | < 1e-05
C10U G29C G37A A53C | < 1e-05 |  |  |  | 
C10A G41C A48C C58G | < 1e-05 |  |  |  | 
C11U C50A C70G | 9.07e-05 ± 2.5e-05 |  | 0.000365 ± 8.8e-05 | 0.000173 ± 6e-05 | 5.4e-05 ± 1.6e-05
C11G G40A G43A | < 1e-05 |  |  |  | < 1e-05
C11G G62A | < 1e-05 |  |  |  | 
C10U G13A C68A | < 1e-05 |  |  |  | 

Variant | self-cleavage kobs at 40 uM GlcN6P (glucosamine-6-phosphate [1]) [s⁻¹] | self-cleavage kobs at 160 uM GlcN6P (glucosamine-6-phosphate [2]) [s⁻¹] | self-cleavage kobs at 640 uM GlcN6P (glucosamine-6-phosphate [3]) [s⁻¹] | self-cleavage kobs at 2500 uM GlcN6P (glucosamine-6-phosphate [4]) [s⁻¹] | self-cleavage kobs at 10000 uM GlcN6P (glucosamine-6-phosphate [5]) [s⁻¹]
C11U C34G G41A U47G | < 1e-05 |  | < 1e-05 | < 1e-05 | < 1e-05
C10A U46G U47G C50G C58G C68U | 0.000116 ± 2.2e-05 |  |  |  | 0.000242 ± 4.3e-05
C10G G13U A14U | < 1e-05 |  |  |  | 
C11G C34A A64C | < 1e-05 |  |  |  | < 1e-05
C10A A48U A52C A64G | < 1e-05 |  |  |  | 
C10G C68A | < 1e-05 |  |  |  | 
C10U C16G G35C A42U U57G G59A | < 1e-05 |  |  |  | 
C10U U49C | < 1e-05 |  | < 1e-05 | < 1e-05 | < 1e-05
C11G A53U | < 1e-05 |  |  |  | 
C11U C50G C68G | 6.75e-05 ± 1.4e-05 |  | 0.000123 ± 1.8e-05 | 0.000141 ± 2.8e-05 | 
C10A U30G | < 1e-05 | < 1e-05 |  |  | 
G9C G59C | < 1e-05 | < 1e-05 | < 1e-05 | < 1e-05 | < 1e-05
C10U A15G G40U | < 1e-05 |  |  |  | < 1e-05
C11G G41C C50U | < 1e-05 |  |  |  | 
C10G G29C G40A | < 1e-05 |  |  |  | < 1e-05
C10G U47G C70U C71G | < 1e-05 |  | 0.00148 ± 0.00064 |  | 
C10A A15U | < 1e-05 |  | < 1e-05 |  | 
C10G C16U U49C | < 1e-05 |  | < 1e-05 |  | 
C10A G32A G51A | < 1e-05 |  |  |  | 
C11A A14U A36U U46A | < 1e-05 |  |  | < 1e-05 | < 1e-05

Variant | self-cleavage kobs at 40 uM GlcN6P (glucosamine-6-phosphate [1]) [s⁻¹] | self-cleavage kobs at 160 uM GlcN6P (glucosamine-6-phosphate [2]) [s⁻¹] | self-cleavage kobs at 640 uM GlcN6P (glucosamine-6-phosphate [3]) [s⁻¹] | self-cleavage kobs at 2500 uM GlcN6P (glucosamine-6-phosphate [4]) [s⁻¹] | self-cleavage kobs at 10000 uM GlcN6P (glucosamine-6-phosphate [5]) [s⁻¹]
C11U C16U | 6.96e-05 ± 2e-05 | 8.34e-05 ± 2.3e-05 | 0.000352 ± 9.4e-05 | 0.00134 ± 0.00058 | 0.00196 ± 0.0007
C10U G37U U45A | < 1e-05 |  |  |  | 
C11U A33G G37U C71A | < 1e-05 |  |  |  | < 1e-05
C11G U31G A53C | < 1e-05 |  |  |  | 
C10U C11G U65G | < 1e-05 |  |  |  | 
G9U A12U C70U | < 1e-05 |  |  |  | 
C10A A36C | < 1e-05 |  | < 1e-05 | < 1e-05 | < 1e-05
C11G A36G C67U | < 1e-05 |  |  |  | 
C11A G37C A39G G41A U47G | < 1e-05 |  |  |  | < 1e-05
C11A G41A C50G G59U | < 1e-05 |  |  |  | < 1e-05
C10U G37C A42C | < 1e-05 |  |  | < 1e-05 | < 1e-05
G9U A33C U69G | < 1e-05 |  |  |  | 
C10U A12U A33U A53G C58U U69G | 9.07e-05 ± 2.5e-05 | 0.000159 ± 3.3e-05 | 0.000216 ± 5.1e-05 | 0.000132 ± 4.1e-05 | 6.22e-05 ± 1.8e-05
C10U U45A G51U C67A | < 1e-05 |  |  |  | 
C10G U54G | < 1e-05 | < 1e-05 | < 1e-05 | < 1e-05 | 
G9U C10G | < 1e-05 | < 1e-05 | < 1e-05 | < 1e-05 | < 1e-05
C10U G38C | < 1e-05 | < 1e-05 |  |  | 
C10A A39U U49C | < 1e-05 |  |  |  | < 1e-05
C10G A39C U45A U54G G62C | < 1e-05 |  |  |  | < 1e-05
